According to article PMC4138323 (RNA, 2014):

B1: maltose-binding protein (MBP)-tagged full-length human DDX6 (natural protein)
chain: MSTARTENPVIMGLSSQNGQLRGPVKPTGGPGGGGTQTQQQMNQLKNTNTINNGTQQQAQSMTTTIKPGDDWKKTLKLPPKDLRIKTSDVTSTKGNEFEDYCLKRELLMGIFEMGWEKPSPIQEESIPIALSGRDILARAKNGTGKSGAYLIPLLERLDLKKDNIQAMVIVPTRELALQVSQICIQVSKHMGGAKVMATTGGTNLRDDIMRLDDTVHVVIATPGRILDLIKKGVAKVDHVQMIVLDEADKLLSQDFVQIMEDIILTLPKNRQILLYSATFPLSVQKFMNSHLQKPYEINLMEELTLKGVTQYYAYVTERQKVHCLNTLFSRLQINQSIIFCNSSQRVELLAKKISQLGYSCFYIHAKMRQEHRNRVFHDFRNGLCRNLVCTDLFTRGIDIQAVNVVINFDFPKLAETYLHRIGRSGRFGHLGLAINLITYDDRFNLKSIEEQLGTEIKPIPSNIDKSLYVAEYHSEPVEDEKP
B3: GST–CNOT1_(1088–1312) (domain or fragment)
chain: ENIQEKIAFIFNNLSQSNMTQKVEELKETVKEEFMPWVSQYLVMKRVSIEPNFHSLYSNFLDTLKNPEFNKMVLNETYRNIKVLLTSDKAAANFSDRSLLKNLGHWLGMITLAKNKPILHTDLDVKSLLLEAYVKGQQELLYVVPFVAKVLESSIRSVVFRPPNPWTMAIMNVLAELHQEHDLKLNLKFEIEVLCKNLALDINELKPGNLLKDKDRLKNLDEQLS

Key:
Experiment in all cases: pull-down
GST–CNOT1_(1075–1575) = GST–CNOT1_(1075–1575) (human, UniProt A5YKK6-2 1075-1575)
Chain of GST–CNOT1_(1075–1575) (A5YKK6 1080-1580): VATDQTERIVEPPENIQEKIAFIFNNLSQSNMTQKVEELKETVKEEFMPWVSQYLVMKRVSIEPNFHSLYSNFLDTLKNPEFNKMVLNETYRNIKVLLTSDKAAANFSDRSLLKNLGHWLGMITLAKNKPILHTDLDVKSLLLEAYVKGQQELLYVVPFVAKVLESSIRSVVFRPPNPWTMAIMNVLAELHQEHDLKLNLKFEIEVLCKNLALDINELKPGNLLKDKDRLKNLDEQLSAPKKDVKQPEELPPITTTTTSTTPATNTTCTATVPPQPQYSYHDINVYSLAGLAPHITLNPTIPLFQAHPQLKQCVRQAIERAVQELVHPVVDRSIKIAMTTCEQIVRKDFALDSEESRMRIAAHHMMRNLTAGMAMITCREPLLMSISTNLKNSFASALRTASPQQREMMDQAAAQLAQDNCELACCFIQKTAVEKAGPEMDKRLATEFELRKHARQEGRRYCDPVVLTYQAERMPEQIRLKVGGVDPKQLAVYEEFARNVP

GST–CNOT1_(1088–1312) = target: B3
[1] = target: B1
[2] = target: T1, MBP–DDX6 N-term (residues 1–302) (human, UniProt P26196 1-302)
T1 sequence: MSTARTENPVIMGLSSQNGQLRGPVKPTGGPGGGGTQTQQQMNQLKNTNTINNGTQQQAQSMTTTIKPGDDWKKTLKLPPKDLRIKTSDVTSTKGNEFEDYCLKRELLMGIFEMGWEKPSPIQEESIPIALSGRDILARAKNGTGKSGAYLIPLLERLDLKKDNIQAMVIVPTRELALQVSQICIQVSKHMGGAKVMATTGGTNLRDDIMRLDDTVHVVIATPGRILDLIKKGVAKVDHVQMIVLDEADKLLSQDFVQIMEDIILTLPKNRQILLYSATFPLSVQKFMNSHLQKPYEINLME

Does B1 bind (GST–CNOT1_(1075–1575))?
Result: binds

B2: MBP–DDX6 C-term (residues 303–483) (domain or fragment)
chain: ELTLKGVTQYYAYVTERQKVHCLNTLFSRLQINQSIIFCNSSQRVELLAKKISQLGYSCFYIHAKMRQEHRNRVFHDFRNGLCRNLVCTDLFTRGIDIQAVNVVINFDFPKLAETYLHRIGRSGRFGHLGLAINLITYDDRFNLKSIEEQLGTEIKPIPSNIDKSLYVAEYHSEPVEDEKP
Does B2 bind (GST–CNOT1_(1088–1312))?
Result: binds

Does B3 bind [1]?
Result: binds

Does B3 bind [2]?
Result: binds
